B1: unnamed (protein)
chain: MRPPWYPLHTPSLAFPLLFLLLSLLGGGARAEGREDPQLLVRVRGGQLRGIRLKAPGGPVSAFLGIPFAEPPVGSRRFMPPEPKRPWSGVLDATTFQNVCYQYVDTLYPGFEGTEMWNPNRELSEDCLYLNVWTPYPRPASPTPVLIWIYGGGFYSGAASLDVYDGRFLAQVEGAVLVSMNYRVGTFGFLALPGSREAPGNVGLLDQRLALQWVQENIAAFGGDPMSVTLFGESAGAASVGMHILSLPSRSLFHRAVLQSGTPNGPWATVSAGEARRRATLLARLVGCPPGGAGGNDTELIACLRTRPAQDLVDHEWHVLPQESIFRFSFVPVVDGDFLSDTPEALINTGDFQDLQVLVGVVKDEGSAFLVYGVPGFSKDNESLISRAQFLAGVRIGVPQASDLAAEAVVLHYTDWLHPEDPTHLRDAMSAVVGDHNVVCPVAQLAGRLAAQGARVYAYIFEHRASTLTWPLWMGVPHGYEIEFIFGLPLDPSLNYTTEERIFAQRLMKYWTNFARTGDPNDPRDSKSPQWPPYTTAAQQYVSLNLKPLEVRRGLRAQTCAFWNRFLPKLLSATDTLDEAERQWKAEFHRWSSYMVHWKNQFDHYSKQERCSDL
B2: unnamed (protein)
chain: MRPPWYPLHTPSLAFPLLFLLLSLLGGGARAEGREDPQLLVRVRGGQLRGIRLKAPGGPVSAFLGIPFAEPPVGSRRFMPPEPKRPWSGVLDATTFQNVCYQYVDTLYPGFEGTEMWNPNRELSEDCLYLNVWTPYPRPASPTPVLIWIYGGGFYSGAASLDVYDGRFLAQVEGAVLVSMNYRVGTFGFLALPGSREAPGNVGLLDQRLALQWVQENIAAFGGDPMSVTLFGESAGAASVGMHILSLPSRSLFHRAVLQSGTPNGPWATVSAGEARRRATLLARLVGCPPGGAGGNDTELIACLRTRPAQDLVDHEWHVLPQESILRISFVPVVDGDFLSDTPEALINTGDFQDLQVLVGVVKDEGSYFLVYGVPGFSKDNESLISRAQFLAGVRIGVPQASDLAAEAVVLHYTDWLHPEDPTHLRDAMSAVVGDHNVVCPVAQLAGRLAAQGARVYAYIFEHRASTLTWPLWMGVPHGYEIEFIFGLPLDPSLNYTTEERIFAQRLMKYWTNFARTGDPNDPRDSKSPQWPPYTTAAQQYVSLNLKPLEVRRGLRAQTCAFWNRFLPKLLSATDTLDEAERQWKAEFHRWSSYMVHWKNQFDHYSKQERCSDL
B3: unnamed (protein)
chain: MRPPWYPLHTPSLAFPLLFLLLSLLGGGARAEGREDPQLLVRVRGGQLRGIRLKAPGGPVSAFLGIPFAEPPVGSRRFMPPEPKRPWSGVLDATTFQNVCYQYVDTLYPGFEGTEMWNPNRELSEDCLYLNVWTPYPRPASPTPVLIWIYGGGFYSGAASLDVYDGRFLAQVEGAVLVSMNYRVGTFGFLALPGSREAPGNVGLLDQRLALQWVQENIAAFGGDPMSVTLFGESAGAASVGMHILSLPSRSLFHRAVLQSGTPNGPWATVSAGEARRRATLLARLVGCPPGGAGGNDTELIACLRTRPAQDLVDHEWHVLPQESIFRFSFVPVVDGDFLSDTPEALINTGDFQDLQVLVGVVKDEGSYFLVYGVPGFSKDNESLISRAQFLAGVRIGVPQASDLAAEAVVLHYTDWLHPEDPTHLRDAMSAVVGDHNVVCPVAQLAGRLAAQGARVYAYIFEHRASTLTWPLWMGVPHGYEIEFIFGLPLDPSLNYTTEERIFAQRLMKYWTNFARTGDPNDPRDSKSPQWPPYTTAAQQYVSLNLKPLEVRRGLRAQTCAFWNRFLPKLLSATDTLDEAERQWKAEFHRWSSYMVHWKNQFDHYSKQERCSDL
B4: unnamed (protein)
chain: MRPPWYPLHTPSLAFPLLFLLLSLLGGGARAEGREDPQLLVRVRGGQLRGIRLKAPGGPVSAFLGIPFAEPPVGSRRFMPPEPKRPWSGVLDATTFQNVCYQNVDTLYPGFEGTEMWNPNRELSEDCLYLNVWTPYPRPASPTPVLIWIYGGGFQSGAASLDVYDGRFLAQVEGAVLVSMNYRVGTFGFLALPGSREAPGNVGLLDQRLALQWVQENIAAFGGDPMSVTLFGESAGAASVGMHILSLPSRSLFHRAVLQSGTPNGPWATVSAGEARRRATLLARLVGCPPGGAGGNDTELIACLRTRPAQDLVDHEAHVLPQESIFRFSFVPVVDGDFLSDTPEALINTGDFQDLQVLVGVVKDEGSYFLVYGVPGFSKDNESLISRAQFLAGVRIGVPQASDLAAEAVVLHYTDWLHPEDPTHLRDAMSAVVGDHNVVCPVAQLAGRLAAQGARVYAYIFEHRASTLTWPLWMGVPHGYEIEFIFGLPLDPSLNYTTEERIFAQRLMKYWTNFARTGDPNDPRDSKSPQWPPYTTAAQQYVSLNLKPLEVRRGLRAQTCAFWNRFLPKLLSATDTLDEAERQWKAEFHRWSSYMVHWKNQFDHYSKQERCSDL
B5: unnamed (protein)
chain: MRPPWYPLHTPSLAFPLLFLLLSLLGGGARAEGREDPQLLVRVRGGQLRGIRLKAPGGPVSAFLGIPFAEPPVGSRRFMPPEPKRPWSGVLDATTFQNVCYQYVDTLYPGFEGTEMWNPNRELSEDCLYLNVWTPYPRPASPTPVLIWIYGGGFYSGAASLDVYDGRFLAQVEGAVLVSMNYRVGTFGFLALPGSREAPGNVGLLDQRLALQWVQENIAAFGGDPMSVTLFGESAGAASVGMHILSLPSRSLFHRAVLQSGTPNGPWATVSAGEARRRATLLARLVGCPPGGAGGNDTELIACLRTRPAQDLVDHEWHVLPQESIYRFSFVPVVDGDFLSDTPEALINTGDFQDLQVLVGVVKDEGSYFLVYGVPGFSKDNESLISRAQFLAGVRIGVPQASDLAAEAVVLHYTDWLHPEDPTHLRDAMSAVVGDHNVVCPVAQLAGRLAAQGARVYAYIFEHRASTLTWPLWMGVPHGYEIEFIFGLPLDPSLNYTTEERIFAQRLMKYWTNFARTGDPNDPRDSKSPQWPPYTTAAQQYVSLNLKPLEVRRGLRAQTCAFWNRFLPKLLSATDTLDEAERQWKAEFHRWSSYMVHWKNQFDHYSKQERCSDL

Substrate: Acetylcholine
Settings: pH 7; 22 °C

Protein | Km | kcat | kcat/Km
B1 | 110 µM | 867 s⁻¹ | –
B2 | 200 µM | 200 s⁻¹ | –
B3 | 451000 µM | 667 s⁻¹ | 1480 M⁻¹ s⁻¹
B4 | 230 µM | 2500 s⁻¹ | –
B5 | 17 µM | 102 s⁻¹ | –

From the PETadex activity labels (doi:10.1021/bi00096a018)
